The chains are these.
B1: Azoarcus group I ribozyme (parent)
chain: GUGCCUUGCGCCGGGAAACCACGCAAGGGAUGGUGUCAAAUUCGGCGAAACCUAAGCGCCCGCCCGGGCGUAUGGCAACGCCGAGCCAAGCUUCGGCGCCUGCGCCGAUGAAGGUGUAGAGACUAGACGGCACCCACCUAAGGCAAACGCUAUGGUGAAGGCAUAGUCCAGGGAGUGGCGAAAGUCACACAAACCGG

Variants of B1 are the subject of the data set. The data set is described as follows: reverse-splicing fitness (ratio to wild type); higher = more active; in vitro selection; Mg2+ level not given. In outline:
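An in vitro group I ribozyme library with randomized positions was T7-transcribed and gel-purified. In triplicate, 10 pmol RNA in EPPS pH 7.5 was reacted with 50 pmoles of a 30-nt RNA substrate for 1 h at 37 °C across several added MgCl2 levels (1–48 mM), then stopped with EDTA. Products were reverse transcribed from a substrate-complementary primer, PCR-amplified and sequenced (HiSeq 4000). Fitness is a variant's read proportion after selection over that before, normalised to wild type.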
With A111U A120U C150G C169G U176A, the reverse-splicing fitness was 0.00371. As for A111U A145C, the reverse-splicing fitness is 0.974. Consider A111U A145C C150G C169G U176C, for which the reverse-splicing fitness was determined as 0.00846. As to A111U A145C C150G C169G U176A, the reverse-splicing fitness was 0.00774. Turning to A111U A145C C150G C169G U176G, the reverse-splicing fitness turned out to be 0.00549. The figure for A111U A120U A145G C150U C169U U176A is 0.0115; for A111U A120U A145G C150U C169U U176C it is 0.0144. With A111U A120U A145G C150U C169U U176G, the reverse-splicing fitness is 0.00291. The figure for A111U A120U A145C C150G C169G U176A is 0.00251; for A111U A120U A145C C150G C169G U176G it is 0.00228.

For the variant A111U A120U A145C C150G C169G U176C, the reverse-splicing fitness was 0.00254.

In the case of A111U A120G C150G C169U U176C, the reverse-splicing fitness worked out at 0.0149.

Turning to A111U A120G C150G C169U U176G, the reverse-splicing fitness amounted to 0.00577.

A111U A120G C150G C169U U176A: the reverse-splicing fitness is 0.0137.

Consider A111U A120U A145C C150A, for which the reverse-splicing fitness turned out to be 0.0261. As for A111U A120U A145C C150U, the reverse-splicing fitness is 0.15. As for A111U A120U A145C C150G, the reverse-splicing fitness was 0.0741. The figure for A111U A120U is 0.634. Regarding A111U A120U A145G C150U C169G U176C, the reverse-splicing fitness stood at 0.00802. The figure for A111U A120U A145G C150U C169G U176A is 0.00769; for A111U A120U A145G C150U C169G U176G it is 0.0024; for A111U A120U A145C C150G C169A U176C it is 0.00276. The figure for A111U A120U A145C C150G C169A U176G is 0.00254. The figure for A111U A120U A145C C150G C169A U176A is 0.00234; for A111U A120U A145U C150G C169A it is 0.00326. A111U A120U A145U C150G C169G: the reverse-splicing fitness came out at 0.00597. With A111U A120U A145U C150G C169U, the reverse-splicing fitness is 0.00751.

For the variant A111U A120G C150G U176G, the reverse-splicing fitness was found to be 0.00275. With A111U A120G C150G U176C, the reverse-splicing fitness stood at 0.0112.

Take A111U A120G C150G U176A: the reverse-splicing fitness stood at 0.00753. For A111U A120U A145U C150U C169U U176G, the reverse-splicing fitness came out at 0.00253. In the case of A111U A120U A145U C150U C169U U176A, the reverse-splicing fitness worked out at 0.00718. Consider A111U A120U A145U C150U C169U U176C, for which the reverse-splicing fitness was determined as 0.00988.

For the variant A111U A120U A145U C150U C169A U176G, the reverse-splicing fitness came to 0.00264.

A111U A120U A145U C150U C169A U176A: the reverse-splicing fitness was determined as 0.00308. Take A111U A120U A145U C150U C169A U176C: the reverse-splicing fitness was found to be 0.00309. The figure for A111U A120G C169A U176A is 0.0264; for A111U A120G C169A U176G it is 0.00454. In the case of A111U A120G C169A U176C, the reverse-splicing fitness came out at 0.0386.

Consider A111U A120U A145G C169G U176C, for which the reverse-splicing fitness was found to be 0.00918. With A111U A120U A145G C169G U176G, the reverse-splicing fitness stood at 0.00167.

With A111U A120U A145G C169G U176A, the reverse-splicing fitness came out at 0.00549. With A111U A120U A145G C150G C169U, the reverse-splicing fitness is 0.0125.

Turning to A111U A120U A145G C150G C169A, the reverse-splicing fitness came to 0.00796. On to A111U A120U A145G C150G C169G, for which the reverse-splicing fitness was found to be 0.01.

Turning to A111U A145C C150G C169A, the reverse-splicing fitness amounted to 0.00988. As to A111U A145C C150G C169G, the reverse-splicing fitness worked out at 0.0108.

For A111U A145C C150G C169U, the reverse-splicing fitness was determined as 0.0175. In the case of A111U A145C C150A C169A U176G it was 0.00617; in that of A111U A145C C150A C169A U176C, 0.00656; in that of A111U A145C C150A C169A U176A, 0.0128. For the variant A111U A120U A145C C169A U176A, the reverse-splicing fitness was 0.0026. The figure for A111U A120U A145C C169A U176C is 0.00249. Regarding A111U A120U A145C C169A U176G, the reverse-splicing fitness was found to be 0.00152. As to A111U A120U A145C C150A C169U U176A, the reverse-splicing fitness was determined as 0.00285. Regarding A111U A120U A145C C150A C169U U176C, the reverse-splicing fitness was determined as 0.00285.

As for A111U A120U A145C C150A C169U U176G, the reverse-splicing fitness stood at 0.00241. Take A111U A120U C150A C169U: the reverse-splicing fitness is 0.00846. With A111U A120U C150A C169A, the reverse-splicing fitness was determined as 0.00436. As to A111U A120U C150A C169G, the reverse-splicing fitness worked out at 0.00631. In the case of A111U A120G C150U C169U U176G, the reverse-splicing fitness worked out at 0.00701. As to A111U A120G C150U C169U U176C, the reverse-splicing fitness came out at 0.0386. Consider A111U A120G C150U C169U U176A, for which the reverse-splicing fitness amounted to 0.0401. For the variant A111U A120U A145U C150A C169G U176C, the reverse-splicing fitness was 0.00325. As to A111U A120U A145U C150A C169G U176A, the reverse-splicing fitness worked out at 0.00269.

As for A111U A120U A145U C150A C169G U176G, the reverse-splicing fitness was found to be 0.00225.

With A111U A120G C150G C169G U176C, the reverse-splicing fitness was determined as 0.00471. As to A111U A120G C150G C169G U176A, the reverse-splicing fitness is 0.00621.

For the variant A111U A120G C150G C169G U176G, the reverse-splicing fitness turned out to be 0.00442. Regarding A111U A120U A145C C150A C169G U176G, the reverse-splicing fitness turned out to be 0.00184. The figure for A111U A120U A145C C150A C169G U176C is 0.00308; for A111U A120U A145C C150A C169G U176A it is 0.00297. In the case of A111U A120U A145U C150G U176G it was 0.0043; in that of A111U A120U A145U C150G U176A, 0.0111.

Take A111U A120U A145U C150G U176C: the reverse-splicing fitness came out at 0.0208. The figure for A111U A120U A145G C150U C169U is 0.0617.

Take A111U A120U A145G C150U C169G: the reverse-splicing fitness turned out to be 0.0377. As to A111U A120U A145G C150U C169A, the reverse-splicing fitness was determined as 0.00694. Turning to A111U A120U A145G U176G, the reverse-splicing fitness was determined as 0.0546.

As for A111U A120U A145G U176C, the reverse-splicing fitness was 0.266. In the case of A111U A120U A145G U176A, the reverse-splicing fitness is 0.27. Consider A111U A120U A145G C150U U176G, for which the reverse-splicing fitness is 0.0253.

A111U A120U A145G C150U U176C: the reverse-splicing fitness is 0.206. Consider A111U A120U A145G C150U U176A, for which the reverse-splicing fitness is 0.18.

For the origin of these results see the RNAGym collection of RNA variant scans (doi:10.1093/molbev/msab373).
